Data taken from patent US11202837B2, “Biological materials and uses thereof” (Antikor Biopharma Limited, priority 2014, dated 2021).

Legend:
[1] = Concentration reached and storage stability of purified conjugates in buffer; type: physicochemical; conditions: Storage buffer 20 mM Sodium Acetate pH5, 150 mM NaCl
[2] = Plasma pharmacokinetics in BALB/c mice (ELISA, total antibody and total ADC); type: in vivo, mouse; conditions: for Elimination half-life (hrs) Total Antibody: plasma ELISA
Description: Mice. Female BALB/c mice (BALB/cAnNCrl, Charles River) were eight weeks old with body weights ranging from 15.9 to 21.9 grams at the beginning of the study. The animals were fed ad libitum water (reverse osmosis, 1 ppm Cl) and NIH 31 Modified and Irradiated Lab Diet® consisting of 18.0% crude protein, 5.0% crude fat, and 5.0% crude fiber. The mice were housed on irradiated Enrich-o'cobs™ Laboratory Animal Bedding in static microisolators on a 12-hour light cycle at 20-22° C. (68-72° F.) and at 40-60% humidity. Charles River Discovery Services North Carolina (CR Discovery Services, who carried out this contracted R&D) specifically complies with the recommendations of the Guide for Care and Use of Laboratory Animals with respect to restraint, husbandry, surgical procedures, feed and fluid regulation, and veterinary care. The Animal Care and Use program at CR Discovery Services is accredited by the Association for Assessment and Accreditation of Laboratory Animal Care International, which assures compliance with accepted standards for the care and use of laboratory animals.
Therapeutic (test) Agents. All test agents were supplied as ready-to-dose dosing solutions. All dosing solutions were stored at 4° C. until dosed. All treatments were administered in a dosing volume scaled to the body weights of the individual animals to obtain the dosing concentration described in the treatment tables.
Treatment (mice). On Day 1 of the study, mice were divided into groups each consisting of eighteen mice (per test agent being evaluated), and dosing was initiated according to the treatment plan summarized in the treatment tables. All doses were administered intravenously (i.v.) by tail vein injection as described in the tables below.
Endpoint. The study endpoint occurred after the last sampling point, typically on Day 2 or 4, twenty-four or seventy-two hours post dose.
Sampling (mice). Blood (full blood volume) was collected from three animals per treatment group per timepoint. Samples were collected from all animals via terminal cardiac puncture under isoflurane anesthesia. Once collected, blood samples were collected into collection tubes containing lithium heparin or K2EDTA as anticoagulants and were processed for plasma at each timepoint. Each plasma sample was stored at −80° C. until used for analysis.
Quantification of test agents in plasma. An ELISA was carried out as described in Example 31 The detecting antibodies were (a) Anti-T7 tag to detect the scFv (total antibody), (b) Anti-Human Fab-specific to detect trastuzumab (total antibody), (c) Anti-MMAF (Concortis), Anti-MMAE (Concortis), anti-DM1
(Concortis) and anti-cemadotin (in-house mouse monoclonal antibody, Example 33 that also recognised P5C5 and AuristatinF), total ADC. The reference test agents were used to construct a calibration curve for which the plasma samples were compared to, in order to quantify the amount present. The concentration was plotted against time (average of three animals with standard error) and fitted to a 2-phase decay curve using GraphPad Prism to derive kinetic parameters.

[3] = Blood clearance in mice by direct ADC/scFv detection ELISA; type: in vivo, mouse; conditions: BALB/c mice
Description: An anti-Cemadotin MAb was raised (Example 33) and used to follow the ADC in mouse blood, to determine the pharmacokinetic properties. Normal BALB/c mice, 6-8 weeks old were maintained in filtered cages until used. A single batch of material (scFv-TCT, scFv (TCT)-Cemadotin, DAR=5 or 8) were prepared as above (Example 31) and 0.1 mg was injected into groups of 20 mice that were sacrificed at 4 time points (5 mice analysed per time point). Around 0.5 ml of whole blood was removed by cardiac puncture into EDTA-tubes and the serum collected by centrifugation. The serum was diluted appropriately into PBS and analysed by ELISA on HER2 coated micro-titre plates (Example 11D), detecting either by anti-T7 Tag (total antibody) or anti-cemadotin (total ADC). Non-injected reference samples were used to create a calibration curve for a direct read-out of ADC/ScFv blood concentration.

[4] = molecular target: HER2 (Homo sapiens, UniProt P04626); experiment: Biacore SPR binding to immobilised HER2; conditions: immobilised HER2
Summary of the method: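 HER2 amine-coupled on CM5 or CM3 chips, Biacore T200. Free antibody (typically 5-0.6 μg/ml) and conjugates (20-2.5 μg/ml) injected 160 s at 30 μl/min, 900 s dissociation (3600 s at highest concentration); regeneration with 8M MgCl2. Kinetics compared with unmodified scFv.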

[5] = Blood clearance of 125-I radiolabelled scFv/conjugates in mice; type: in vivo, mouse; conditions: total protein level by 125-I labelling, 10 μg i.v., BALB/c mice
Description: An scFv, optimised for lysine conjugation was prepared as described in Example 27 or 28 and conjugated (as described in Example 31) to an NHS-derived Cemadotin drug (compound 2). The average DAR was 5 for scFv-TCT-Cem-1 and 4 for scFv-TCT-Cem-2 as determined by SDS-PAGE and IEF gels. This was radiolabelled with Iodine-125 using sodium-125-Iodide (MP Biologicals) and Iodogen™ tubes (Thermo) according to the manufacturer's instructions.
Ten micrograms of radiolabelled scFv or conjugate were injected intravenously into the tail vein of a group of 4 BALB/c female mice (Harlan UK) per time point. At each time point, blood was collected by cardiac puncture under terminal anaesthesia from 4 mice and the spleens were removed by dissection. The radioactivity from the blood and spleen tissues was measured using a gamma counter and compared to the injected dose, correcting for tissue weight. The percentage-injected dose per gram of tissue was plotted over time and pharmacokinetic parameters determined by fitting to a bi-exponential clearance model. […] This is described by the exponential decay, double, four-parameter equation y=ae^−bx+ce^−dx, where the distribution phase clearance rate (t1/2 alpha) can be determined by In 2/b, and the elimination clearance rate (t1/2 beta) can be determined by In 2/d.

[6] = 0.1 mg injected, serum, anti-T7 tag detection

B1: scFv (TCT): anti-HER2 scFv: Tev cleavage site, C6.5, T7 tag; SEQ ID NO: 2 (protein)
scFv: SGSGGSGQVQLVQSGAEVKKPGESLKISCKGSGYSFTSYWIAWVRQMPGKGLEYMGLIYPGDSDTKYSPSFQGQVTISVDKSVSTAYLQWSSLKPSDSAVYFCARHDVGYCSSSNCAAWPEYFQHWGQGTLVTVSSGGGGSGGGGSGGGGSQSVLTQPPSVSAAPGQKVTISCSGSSSNIGNNYVSWYQQLPGTAPKLLIYGHTNRPAGVPDRFSGSKSGTSASLAISGFRSEDEADYYCAAWDDSLSGWVFGGGTKLTVLMASMTGGQQMG
modifications: Amino Acid sequence of cleaved TCT
- stability after multiple freeze-thaw cycles [1]: stable
- Bioavailability (blood exposure, AUC, 24 hrs) ([2]; mice, 1 × 5 mg/kg, mean AUC in anti-payload and anti-protein detection, Table 59): 2.91 μghr/ml
- Elimination half-life (hrs) Total Antibody ([2]; mice, 1 × 5 mg/kg, Table 55): 2.78 h
- Elimination half-life (hrs) Total Antibody ([2]; mice, 1 × 5 mg/kg, Table 59): 2.78 h
- plasma clearance (in words) ([2]; single i.v. dose, female BALB/c mice (5 mg/kg MMAF-C5, P5C5; 2 mg/kg AF-C5, DM1)): clears rapidly
- t1/2 (alpha), total antibody measured by anti-HER2 binding [3, 6]: 0.4 h
- t1/2 (beta), total antibody measured by anti-HER2 binding [3, 6]: 5.25 h
- blood clearance (in words) ([3]; measured directly): rapid blood clearance
- association rate [4]: 2.8e+06 M⁻¹ s⁻¹
- dissociation rate [4]: 0.00417 s⁻¹
- t1/2 (alpha) [5]: 0.4 h
- t1/2 (beta) [5]: 4.3 h
